Experimental data from patent publication US20240165282A1, “CONFORMATIONAL CONSTRAINED SOMATOSTATIN RECEPTOR 3 PEPTIDE LIGANDS AND THEIR CONJUGATES AND USES THEREOF” (STARGET PHARMA LTD., priority 2021, published 2024).
*1 amine or outer side, *2 acyl side, *3 side chain or, on linkers, in order; H or OH if unused. Bridges are numbered along the chain shown (N, C = ends). [ ]: non-standard residue; d: D form. The star is where a group is joined. DOTA = O=C(O)CN1CCN(CC(=O)O)CCN(CC(=O)*)CCN(CC(=O)O)CC1; N(2-mercaptoethyl)Gly = O=C(CN(CCS[*:3])[*:1])[*:2]

Assays:
Experiment in all cases: cell-based or functional assay
AGTR1 (human) = AGTR1 (human) (UniProt P30556)
AVPR1A (human) = AVPR1A (human) (UniProt P37288)
C5aR1 (human) = C5aR1 (human) (UniProt P21730)
CALCR (CR) (human) = CALCR (CR) (human) (UniProt P30988)
Chain of CALCR (CR) (human) (P30988 25-474): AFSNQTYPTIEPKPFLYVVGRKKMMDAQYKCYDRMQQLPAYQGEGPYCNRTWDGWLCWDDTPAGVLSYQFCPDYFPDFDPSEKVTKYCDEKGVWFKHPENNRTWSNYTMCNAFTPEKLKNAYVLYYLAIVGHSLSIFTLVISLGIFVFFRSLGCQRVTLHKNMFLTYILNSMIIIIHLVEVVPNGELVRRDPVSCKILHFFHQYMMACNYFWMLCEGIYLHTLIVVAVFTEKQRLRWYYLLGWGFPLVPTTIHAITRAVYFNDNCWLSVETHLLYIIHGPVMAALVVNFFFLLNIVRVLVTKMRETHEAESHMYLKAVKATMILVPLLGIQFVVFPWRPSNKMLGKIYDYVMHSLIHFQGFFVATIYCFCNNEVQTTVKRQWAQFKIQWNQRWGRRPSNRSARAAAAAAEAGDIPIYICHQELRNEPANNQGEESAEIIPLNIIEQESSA

CCKAR (human) = CCKAR (human) (UniProt P32238)
CCR3 (human) = CCR3 (human) (UniProt P51677)
Chain of CCR3 (human) (P51677 whole entry): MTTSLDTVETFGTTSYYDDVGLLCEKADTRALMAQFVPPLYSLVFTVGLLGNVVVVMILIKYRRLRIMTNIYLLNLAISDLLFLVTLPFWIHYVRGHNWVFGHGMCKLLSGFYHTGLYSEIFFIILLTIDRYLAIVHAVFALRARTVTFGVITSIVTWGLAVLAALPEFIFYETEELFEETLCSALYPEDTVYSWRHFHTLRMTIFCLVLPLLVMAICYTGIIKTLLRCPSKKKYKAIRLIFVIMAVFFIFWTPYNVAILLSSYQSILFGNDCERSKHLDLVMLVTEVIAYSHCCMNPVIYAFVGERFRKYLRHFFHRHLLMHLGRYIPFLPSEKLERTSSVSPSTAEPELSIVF

CHRM3 (human) = CHRM3 (human) (UniProt P20309)
Chain of CHRM3 (human) (P20309 whole entry): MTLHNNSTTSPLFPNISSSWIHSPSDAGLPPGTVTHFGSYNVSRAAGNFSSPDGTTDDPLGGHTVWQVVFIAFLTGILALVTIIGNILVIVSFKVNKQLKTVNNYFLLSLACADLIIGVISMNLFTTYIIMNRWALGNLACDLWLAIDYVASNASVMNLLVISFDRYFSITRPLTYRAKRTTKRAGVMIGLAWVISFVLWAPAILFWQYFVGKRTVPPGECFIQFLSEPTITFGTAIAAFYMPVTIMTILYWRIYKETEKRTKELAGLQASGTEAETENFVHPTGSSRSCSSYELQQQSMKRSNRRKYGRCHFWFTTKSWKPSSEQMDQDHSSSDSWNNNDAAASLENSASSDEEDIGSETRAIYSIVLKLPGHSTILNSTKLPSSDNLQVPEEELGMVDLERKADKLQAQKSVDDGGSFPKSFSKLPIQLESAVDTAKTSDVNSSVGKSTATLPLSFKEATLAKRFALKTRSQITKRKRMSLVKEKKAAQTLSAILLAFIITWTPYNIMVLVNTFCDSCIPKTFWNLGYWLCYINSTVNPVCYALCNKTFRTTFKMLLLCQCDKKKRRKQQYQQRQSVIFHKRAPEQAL

CMKLR1 (human) = CMKLR1 (human) (UniProt Q99788)
Chain of CMKLR1 (human) (Q99788 whole entry): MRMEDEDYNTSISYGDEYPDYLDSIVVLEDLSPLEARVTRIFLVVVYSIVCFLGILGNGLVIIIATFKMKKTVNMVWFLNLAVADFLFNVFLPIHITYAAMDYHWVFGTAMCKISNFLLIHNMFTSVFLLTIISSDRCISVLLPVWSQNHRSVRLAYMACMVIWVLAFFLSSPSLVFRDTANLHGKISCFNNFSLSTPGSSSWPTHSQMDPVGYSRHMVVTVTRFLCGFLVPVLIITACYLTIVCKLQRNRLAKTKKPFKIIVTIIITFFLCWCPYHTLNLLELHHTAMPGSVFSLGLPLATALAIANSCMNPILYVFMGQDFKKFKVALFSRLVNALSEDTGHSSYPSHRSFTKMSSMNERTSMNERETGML

CRHR2 (human) = CRHR2 (human) (UniProt Q13324)
CX3CR1 (human) = CX3CR1 (human) (UniProt P49238)
CXCR4 (human) = CXCR4 (human) (UniProt P61073)
DRD2L (human) = DRD2L (human) (UniProt P14416)
DRD4 (human) = DRD4 (human) (UniProt P21917)
DRD5 (human) = DRD5 (human) (UniProt P21918)
EBI2 (human) = EBI2 (human) (UniProt P32249)
Chain of EBI2 (human) (P32249 whole entry): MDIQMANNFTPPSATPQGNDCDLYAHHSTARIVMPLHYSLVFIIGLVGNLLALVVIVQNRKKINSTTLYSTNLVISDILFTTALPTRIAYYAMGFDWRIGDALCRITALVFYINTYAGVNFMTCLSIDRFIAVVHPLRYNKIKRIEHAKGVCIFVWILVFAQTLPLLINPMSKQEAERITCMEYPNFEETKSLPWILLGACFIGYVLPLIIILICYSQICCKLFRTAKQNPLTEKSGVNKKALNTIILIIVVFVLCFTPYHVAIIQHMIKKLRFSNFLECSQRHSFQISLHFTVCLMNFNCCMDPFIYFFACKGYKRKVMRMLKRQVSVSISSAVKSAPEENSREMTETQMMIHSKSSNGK

EDG3 (human) = EDG3 (human) (UniProt Q99500)
EDG6 (human) = EDG6 (human) (UniProt O95977)
FSHR (human) = FSHR (human) (UniProt P23945)
GALR2 (human) = GALR2 (human) (UniProt O43603)
GHSR (human) = GHSR (human) (UniProt Q92847)
GIPR (human) = GIPR (human) (UniProt P48546)
GLP2R (human) = GLP2R (human) (UniProt O95838)
GPR119 (human) = GPR119 (human) (UniProt Q8TDV5)
GPR92 (human) = GPR92 (human) (UniProt Q9H1C0)
HCRTR2 (human) = HCRTR2 (human) (UniProt O43614)
HRH2 (human) = HRH2 (human) (UniProt P25021)
HTR1A (human) = HTR1A (human) (UniProt P08908)
Chain of HTR1A (human) (P08908 whole entry): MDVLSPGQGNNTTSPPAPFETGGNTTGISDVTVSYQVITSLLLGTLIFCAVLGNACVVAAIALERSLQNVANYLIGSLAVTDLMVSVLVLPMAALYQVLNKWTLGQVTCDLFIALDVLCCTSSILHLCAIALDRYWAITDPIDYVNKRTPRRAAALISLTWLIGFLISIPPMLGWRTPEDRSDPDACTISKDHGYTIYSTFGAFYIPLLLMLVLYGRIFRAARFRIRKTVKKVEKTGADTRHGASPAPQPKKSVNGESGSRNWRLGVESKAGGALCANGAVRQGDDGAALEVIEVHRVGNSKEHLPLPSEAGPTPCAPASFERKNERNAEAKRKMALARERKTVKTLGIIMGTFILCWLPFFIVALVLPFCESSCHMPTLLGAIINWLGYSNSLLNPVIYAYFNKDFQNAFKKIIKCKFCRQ

HTR1B (human) = HTR1B (human) (UniProt P28222)
HTR1F (human) = HTR1F (human) (UniProt P30939)
Chain of HTR1F (human) (P30939 whole entry): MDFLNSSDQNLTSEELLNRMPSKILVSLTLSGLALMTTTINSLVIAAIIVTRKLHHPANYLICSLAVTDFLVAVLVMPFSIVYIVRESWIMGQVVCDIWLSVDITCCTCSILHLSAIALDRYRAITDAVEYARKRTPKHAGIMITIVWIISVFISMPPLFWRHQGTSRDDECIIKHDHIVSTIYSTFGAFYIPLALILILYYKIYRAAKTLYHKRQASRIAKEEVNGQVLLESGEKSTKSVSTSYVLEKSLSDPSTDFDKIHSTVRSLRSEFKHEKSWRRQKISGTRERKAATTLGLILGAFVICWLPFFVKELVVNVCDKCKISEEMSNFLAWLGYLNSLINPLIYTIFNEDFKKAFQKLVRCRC

HTR2C (human) = HTR2C (human) (UniProt P28335)
Chain of HTR2C (human) (P28335 33-458): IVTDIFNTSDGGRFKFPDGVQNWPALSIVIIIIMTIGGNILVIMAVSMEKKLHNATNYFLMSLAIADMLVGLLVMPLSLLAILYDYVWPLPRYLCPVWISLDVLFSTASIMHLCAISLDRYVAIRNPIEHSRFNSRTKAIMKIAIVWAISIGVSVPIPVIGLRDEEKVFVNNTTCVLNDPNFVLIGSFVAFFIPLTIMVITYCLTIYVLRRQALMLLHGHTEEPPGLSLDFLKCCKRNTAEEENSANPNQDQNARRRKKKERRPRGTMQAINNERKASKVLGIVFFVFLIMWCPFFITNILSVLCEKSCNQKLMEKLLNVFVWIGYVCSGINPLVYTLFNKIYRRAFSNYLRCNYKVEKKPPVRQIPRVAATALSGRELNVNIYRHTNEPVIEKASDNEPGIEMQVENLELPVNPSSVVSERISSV

LTB4R (human) = LTB4R (human) (UniProt Q15722)
MC1R (human) = MC1R (human) (UniProt Q01726)
MC4R (human) = MC4R (human) (UniProt P32245)
Chain of MC4R (human) (P32245 whole entry): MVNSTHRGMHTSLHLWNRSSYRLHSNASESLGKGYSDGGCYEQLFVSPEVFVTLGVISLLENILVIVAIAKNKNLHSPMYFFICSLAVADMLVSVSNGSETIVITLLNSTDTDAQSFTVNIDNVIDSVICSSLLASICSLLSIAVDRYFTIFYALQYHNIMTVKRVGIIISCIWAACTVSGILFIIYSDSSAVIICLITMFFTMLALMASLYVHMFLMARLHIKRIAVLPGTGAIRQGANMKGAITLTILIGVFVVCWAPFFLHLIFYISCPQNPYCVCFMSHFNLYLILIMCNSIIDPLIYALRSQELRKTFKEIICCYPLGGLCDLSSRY

MCHR1 (human) = MCHR1 (human) (UniProt Q99705)
MRGPRX1 (human) = MRGPRX1 (human) (UniProt Q96LB2)
MTNR1A (human) = MTNR1A (human) (UniProt P48039)
NPFFR1 (human) = NPFFR1 (human) (UniProt Q9GZQ6)
NPY1R (human) = NPY1R (human) (UniProt P25929)
NPY2R (human) = NPY2R (human) (UniProt P49146)
OPRL1 (human) = OPRL1 (human) (UniProt P41146)
OPRM1 (human) = OPRM1 (human) (UniProt P35372)
OXER1 (human) = OXER1 (human) (UniProt Q8TDS5)
P2RY11 (human) = P2RY11 (human) (UniProt Q96G91)
P2RY12 (human) = P2RY12 (human) (UniProt Q9H244)
P2RY6 (human) = P2RY6 (human) (UniProt Q15077)
PROKR1 (human) = PROKR1 (human) (UniProt Q8TCW9)
PTGER2 (human) = PTGER2 (human) (UniProt P43116)
PTGER3 (human) = PTGER3 (human) (UniProt P43115)
PTGIR (human) = PTGIR (human) (UniProt P43119)
PTHR1 (human) = PTHR1 (human) (UniProt Q03431)
PTHR2 (human) = PTHR2 (human) (UniProt P49190)
SCTR (human) = SCTR (human) (UniProt P47872)
TACR1 (human) = TACR1 (human) (UniProt P25103)
TACR2 (human) = TACR2 (human) (UniProt P21452)
Chain of TACR2 (human) (P21452 whole entry): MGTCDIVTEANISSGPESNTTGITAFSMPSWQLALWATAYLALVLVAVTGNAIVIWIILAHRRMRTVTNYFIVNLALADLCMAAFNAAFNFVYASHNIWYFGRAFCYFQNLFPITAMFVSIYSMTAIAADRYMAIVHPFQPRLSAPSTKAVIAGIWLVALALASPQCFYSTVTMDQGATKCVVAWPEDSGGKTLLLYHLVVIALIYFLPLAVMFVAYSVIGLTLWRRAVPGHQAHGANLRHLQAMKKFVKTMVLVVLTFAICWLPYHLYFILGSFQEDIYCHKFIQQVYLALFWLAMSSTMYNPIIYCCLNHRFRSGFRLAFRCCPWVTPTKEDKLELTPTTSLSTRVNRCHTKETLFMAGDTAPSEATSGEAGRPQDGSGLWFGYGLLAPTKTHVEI

TBXA2R (human) = TBXA2R (human) (UniProt P21731)
TRHR (human) = TRHR (human) (UniProt P34981)
UTR2 (human) = UTR2 (human) (UniProt Q9UKP6)
VIPR1 (human) = VIPR1 (human) (UniProt P32241)
Chain of VIPR1 (human) (P32241 31-457): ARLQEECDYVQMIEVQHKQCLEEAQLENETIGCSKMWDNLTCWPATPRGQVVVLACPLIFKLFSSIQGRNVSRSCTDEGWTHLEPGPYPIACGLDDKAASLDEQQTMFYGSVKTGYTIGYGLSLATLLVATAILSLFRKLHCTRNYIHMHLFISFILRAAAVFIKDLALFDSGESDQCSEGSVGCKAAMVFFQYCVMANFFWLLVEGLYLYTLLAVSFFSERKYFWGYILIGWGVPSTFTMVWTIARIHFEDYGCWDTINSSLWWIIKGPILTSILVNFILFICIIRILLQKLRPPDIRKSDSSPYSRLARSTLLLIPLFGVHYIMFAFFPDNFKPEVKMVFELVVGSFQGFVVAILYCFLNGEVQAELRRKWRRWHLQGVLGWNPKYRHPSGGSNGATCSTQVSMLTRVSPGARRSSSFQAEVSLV

VIPR2 (human) = VIPR2 (human) (UniProt P41587)
Chain of VIPR2 (human) (P41587 24-438): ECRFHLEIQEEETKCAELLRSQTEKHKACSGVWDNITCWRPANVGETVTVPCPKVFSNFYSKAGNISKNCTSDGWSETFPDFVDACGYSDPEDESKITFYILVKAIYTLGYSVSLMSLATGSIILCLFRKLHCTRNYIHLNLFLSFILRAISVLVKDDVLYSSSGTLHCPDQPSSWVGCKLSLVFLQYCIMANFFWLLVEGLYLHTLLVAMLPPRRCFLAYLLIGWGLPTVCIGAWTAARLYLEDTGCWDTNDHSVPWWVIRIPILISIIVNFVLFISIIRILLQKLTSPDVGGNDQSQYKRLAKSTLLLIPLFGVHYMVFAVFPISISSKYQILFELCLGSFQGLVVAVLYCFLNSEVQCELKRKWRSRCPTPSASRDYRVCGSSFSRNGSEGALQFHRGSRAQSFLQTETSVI

B1: SEQ ID NO: 4 (peptide)
peptide: {DOTA}-[dF]RCF[dW]KTF[N(2-mercaptoethyl)Gly]-NH2
modifications: disulfide 3-9; also: Ga complex of DOTA
- % Activity (agonist mode, 1 µM) (AGTR1 (human)): -2%
- % Activity (agonist mode, 1 µM) (AVPR1A (human)): 0%
- % Activity (agonist mode, 1 µM) (C5aR1 (human)): 0%
- % Activity (agonist mode, 1 µM) (CALCR (CR) (human)): 0%
- % Activity (agonist mode, 1 µM) (CCKAR (human)): 0%
- % Activity (agonist mode, 1 µM) (CCR3 (human)): 2%
- % Activity (agonist mode, 1 µM) (CHRM3 (human)): 1%
- % Activity (agonist mode, 1 µM) (CMKLR1 (human)): 0%
- % Activity (agonist mode, 1 µM) (CRHR2 (human)): 0%
- % Activity (agonist mode, 1 µM) (CX3CR1 (human)): 0%
- % Activity (agonist mode, 1 µM) (CXCR4 (human)): 3%
- % Activity (agonist mode, 1 µM) (DRD2L (human)): -1%
- % Activity (agonist mode, 1 µM) (DRD4 (human)): 0%
- % Activity (agonist mode, 1 µM) (DRD5 (human)): -2%
- % Activity (agonist mode, 1 µM) (EBI2 (human)): -1%
- % Activity (agonist mode, 1 µM) (EDG3 (human)): -1%
- % Activity (agonist mode, 1 µM) (EDG6 (human)): 10%
- % Activity (agonist mode, 1 µM) (FSHR (human)): 3%
- % Activity (agonist mode, 1 µM) (GALR2 (human)): -4%
- % Activity (agonist mode, 1 µM) (GHSR (human)): -1%
- % Activity (agonist mode, 1 µM) (GIPR (human)): -2%
- % Activity (agonist mode, 1 µM) (GLP2R (human)): -1%
- % Activity (agonist mode, 1 µM) (GPR119 (human)): 19%
- % Activity (agonist mode, 1 µM) (GPR92 (human)): 1%
- % Activity (agonist mode, 1 µM) (HCRTR2 (human)): 0%
- % Activity (agonist mode, 1 µM) (HRH2 (human)): -4%
- % Activity (agonist mode, 1 µM) (HTR1A (human)): 0%
- % Activity (agonist mode, 1 µM) (HTR1B (human)): -1%
- % Activity (agonist mode, 1 µM) (HTR1F (human)): 0%
- % Activity (agonist mode, 1 µM) (HTR2C (human)): 0%
- % Activity (agonist mode, 1 µM) (LTB4R (human)): -1%
- % Activity (agonist mode, 1 µM) (MC1R (human)): 1%
- % Activity (agonist mode, 1 µM) (MC4R (human)): 0%
- % Activity (agonist mode, 1 µM) (MCHR1 (human)): -1%
- % Activity (agonist mode, 1 µM) (MRGPRX1 (human)): 0%
- % Activity (agonist mode, 1 µM) (MTNR1A (human)): -7%
- % Activity (agonist mode, 1 µM) (NPFFR1 (human)): -2%
- % Activity (agonist mode, 1 µM) (NPY1R (human)): -5%
- % Activity (agonist mode, 1 µM) (NPY2R (human)): 1%
- % Activity (agonist mode, 1 µM) (OPRL1 (human)): -3%
- % Activity (agonist mode, 1 µM) (OPRM1 (human)): 1%
- % Activity (agonist mode, 1 µM) (OXER1 (human)): -2%
- % Activity (agonist mode, 1 µM) (P2RY11 (human)): 0%
- % Activity (agonist mode, 1 µM) (P2RY12 (human)): 1%
- % Activity (agonist mode, 1 µM) (P2RY6 (human)): 0%
- % Activity (agonist mode, 1 µM) (PROKR1 (human)): 0%
- % Activity (agonist mode, 1 µM) (PTGER2 (human)): 1%
- % Activity (agonist mode, 1 µM) (PTGER3 (human)): 1%
- % Activity (agonist mode, 1 µM) (PTGIR (human)): 0%
- % Activity (agonist mode, 1 µM) (PTHR1 (human)): 0%
- % Activity (agonist mode, 1 µM) (PTHR2 (human)): 0%
- % Activity (agonist mode, 1 µM) (SCTR (human)): 0%
- % Activity (agonist mode, 1 µM) (TACR1 (human)): 0%
- % Activity (agonist mode, 1 µM) (TACR2 (human)): -1%
- % Activity (agonist mode, 1 µM) (TBXA2R (human)): 1%
- % Activity (agonist mode, 1 µM) (TRHR (human)): 3%
- % Activity (agonist mode, 1 µM) (UTR2 (human)): 0%
- % Activity (agonist mode, 1 µM) (VIPR1 (human)): 0%
- % Activity (agonist mode, 1 µM) (VIPR2 (human)): -1%
